In PMC5053343, “Improvement of free fatty acid production using a mutant acyl-CoA thioesterase I with high specific activity in Escherichia coli” (Biotechnology for Biofuels, 2016):
Where a chain is given by its changes, count along the chain named. Names and notes keep the numbering of the source.

B1: 'TesA (leader sequence-deleted acyl-CoA thioesterase I) (Escherichia coli K-12) (protein)
chain: ADTLLILGDSLSAGYRMSASAAWPALLNDKWQSKTSVVNASISGDTSQQGLARLPALLKQHQPRWVLVELGGNDGLRGFQPQQTEQTLRQILQDVKAANAEPLLMQIRLPANYGRRYNEAFSAIYPKLAKEFDVPLLPFFMEEVYLKPQWMQDDGIHPNRDAQPFIADWMAKQLQPLVNHDS
notes: signal peptide removed (leaderless), C-terminal (His)6 tag from pET28a (NcoI/XhoI), kept; expressed in E. coli BL21(DE3), Ni-NTA purified
B2: 'TesA (leader sequence-deleted acyl-CoA thioesterase I) (Escherichia coli K-12; R90C) (protein)
chain: B1 chain with R64C
notes: as for B1

Substrate: CCCCCCCCCCCCCCCC(=O)SCCNC(=O)CCNC(=O)[C@H](O)C(C)(C)COP(=O)(O)OP(=O)(O)OC[C@H]1O[C@@H](n2cnc3c(N)ncnc32)[C@H](O)[C@@H]1OP(=O)(O)O
Assay: purified protein
Assay type: biochemical, Escherichia coli
Details: 50 mM potassium phosphate pH 7.0, 80 ug/mL BSA, 0.1 mM DTNB, 3.1 x 10^-5 mM enzyme, 0-24 uM palmitoyl-CoA

Protein	Km [µM]	kcat [s⁻¹]
B1	6.69	20.75
B2	4.00	27.12
